Consider one molecule from PMC2873289, “A Helix Replacement Mechanism Directs Metavinculin Functions” (PLoS ONE, 2010).

What is called stoichiometry N is the number of molecules, sites or subunits per partner or assembly.

In data set [1] the target is T1, metavinculin-ΔH1′ (lacking residues 963–983) (human, UniProt P18206 1-1134, lacking residues 963–983).
T1 construct: human metavinculin, full length (1-1,134) lacking residues 963-983 (α-helix H1′): 1-962 joined to 984-1,134; also called MV-ΔH1′; source: E. coli BL21-DE3, purified (as full-length metavinculin); not shown: His8, N-terminal, kept
T1 sequence (looked up): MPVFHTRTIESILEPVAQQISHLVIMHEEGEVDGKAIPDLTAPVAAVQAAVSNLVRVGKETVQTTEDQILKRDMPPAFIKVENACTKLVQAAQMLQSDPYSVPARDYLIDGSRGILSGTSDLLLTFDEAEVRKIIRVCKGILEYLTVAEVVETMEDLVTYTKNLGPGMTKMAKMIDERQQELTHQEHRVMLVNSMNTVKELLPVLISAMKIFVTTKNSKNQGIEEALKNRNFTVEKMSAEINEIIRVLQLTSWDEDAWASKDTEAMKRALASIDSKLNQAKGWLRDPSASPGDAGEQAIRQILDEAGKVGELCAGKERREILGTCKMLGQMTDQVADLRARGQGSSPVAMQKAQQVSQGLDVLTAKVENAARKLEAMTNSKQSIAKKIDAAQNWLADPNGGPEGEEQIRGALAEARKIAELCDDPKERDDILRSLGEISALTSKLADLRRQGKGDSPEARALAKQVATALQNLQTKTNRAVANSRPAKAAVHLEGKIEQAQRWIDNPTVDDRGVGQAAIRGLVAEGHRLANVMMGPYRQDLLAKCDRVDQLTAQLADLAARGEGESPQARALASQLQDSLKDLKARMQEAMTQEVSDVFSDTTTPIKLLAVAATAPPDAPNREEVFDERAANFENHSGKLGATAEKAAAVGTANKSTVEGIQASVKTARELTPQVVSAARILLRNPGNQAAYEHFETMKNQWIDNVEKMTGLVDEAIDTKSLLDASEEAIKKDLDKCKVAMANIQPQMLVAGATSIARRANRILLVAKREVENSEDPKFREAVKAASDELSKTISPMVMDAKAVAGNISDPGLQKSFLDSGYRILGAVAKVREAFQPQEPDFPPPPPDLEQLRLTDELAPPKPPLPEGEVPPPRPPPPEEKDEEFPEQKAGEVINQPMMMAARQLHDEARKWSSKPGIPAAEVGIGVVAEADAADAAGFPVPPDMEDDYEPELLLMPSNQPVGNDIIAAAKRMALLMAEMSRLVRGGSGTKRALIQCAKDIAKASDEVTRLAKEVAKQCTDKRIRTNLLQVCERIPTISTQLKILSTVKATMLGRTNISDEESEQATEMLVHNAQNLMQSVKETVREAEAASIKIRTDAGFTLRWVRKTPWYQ
Nature of the data set: pull-down; GST-Vt (0.5 µM) on GST-Sepharose beads, with or without pre-incubation with 5 µM PIP2; 15 µM His8-tagged metavinculin or deletion mutant pre-activated with talin-VBS3, 1 hr 37°C; 20 mM Tris-HCl pH 8, 150 mM NaCl; eluted with glutathione, SDS-PAGE, Western blot. To be noted: both partners purified.

Data set [2] concerns the molecule itself. Nature of the data set: band on SDS-PAGE of the pull-down eluate, identified by Western blot; band seen in the lanes where GST-Vt and PIP2 are present.

B1: GST tagged vinculin tail domain (GST-Vt; residues 879–1,066) (domain or fragment, human, UniProt P18206-2 879-1066, looked up)
chain: EEKDEEFPEQKAGEVINQPMMMAARQLHDEARKWSSKGNDIIAAAKRMALLMAEMSRLVRGGSGTKRALIQCAKDIAKASDEVTRLAKEVAKQCTDKRIRTNLLQVCERIPTISTQLKILSTVKATMLGRTNISDEESEQATEMLVHNAQNLMQSVKETVREAEAASIKIRTDAGFTLRWVRKTPWYQ
notes: human vinculin tail domain, residues 879-1,066 of vinculin (1,066-residue isoform), cloned in pGEX-4T-1; source: E. coli BL21-DE3, purified (GSTrap FF, Superdex 75)
As for B1, the binding result in data set [1] is reported as “binds”. The “stoichiometry N” value in data set [2] is 2.
